Data taken from patent US7109299 (dated 2006).
Bridge positions count the residues as written; N and C are the ends. Square brackets hold non-standard residues; d marks the D form. Ends that are not written are not given here. Dap = NC[C@H](N)C(=O)O; Ahx = NCCCCCC(=O)O

T1: native IL-5R α/β complex on cells (TF-1 cells; human eosinophils) (human, UniProt Q01344 21-420; P32927 17-897)
T1 sequence (looked up) 1: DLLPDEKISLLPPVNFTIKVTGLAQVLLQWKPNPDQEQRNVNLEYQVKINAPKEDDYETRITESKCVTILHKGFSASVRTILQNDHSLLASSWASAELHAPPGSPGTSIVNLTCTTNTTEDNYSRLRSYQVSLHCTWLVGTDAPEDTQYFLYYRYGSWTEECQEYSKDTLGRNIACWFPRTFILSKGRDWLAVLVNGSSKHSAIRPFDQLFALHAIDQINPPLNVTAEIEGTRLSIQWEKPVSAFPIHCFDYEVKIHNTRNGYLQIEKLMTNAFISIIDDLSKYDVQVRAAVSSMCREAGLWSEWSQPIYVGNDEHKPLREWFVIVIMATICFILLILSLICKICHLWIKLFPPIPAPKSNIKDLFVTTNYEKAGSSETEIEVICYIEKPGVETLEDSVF
T1 sequence (looked up) 2: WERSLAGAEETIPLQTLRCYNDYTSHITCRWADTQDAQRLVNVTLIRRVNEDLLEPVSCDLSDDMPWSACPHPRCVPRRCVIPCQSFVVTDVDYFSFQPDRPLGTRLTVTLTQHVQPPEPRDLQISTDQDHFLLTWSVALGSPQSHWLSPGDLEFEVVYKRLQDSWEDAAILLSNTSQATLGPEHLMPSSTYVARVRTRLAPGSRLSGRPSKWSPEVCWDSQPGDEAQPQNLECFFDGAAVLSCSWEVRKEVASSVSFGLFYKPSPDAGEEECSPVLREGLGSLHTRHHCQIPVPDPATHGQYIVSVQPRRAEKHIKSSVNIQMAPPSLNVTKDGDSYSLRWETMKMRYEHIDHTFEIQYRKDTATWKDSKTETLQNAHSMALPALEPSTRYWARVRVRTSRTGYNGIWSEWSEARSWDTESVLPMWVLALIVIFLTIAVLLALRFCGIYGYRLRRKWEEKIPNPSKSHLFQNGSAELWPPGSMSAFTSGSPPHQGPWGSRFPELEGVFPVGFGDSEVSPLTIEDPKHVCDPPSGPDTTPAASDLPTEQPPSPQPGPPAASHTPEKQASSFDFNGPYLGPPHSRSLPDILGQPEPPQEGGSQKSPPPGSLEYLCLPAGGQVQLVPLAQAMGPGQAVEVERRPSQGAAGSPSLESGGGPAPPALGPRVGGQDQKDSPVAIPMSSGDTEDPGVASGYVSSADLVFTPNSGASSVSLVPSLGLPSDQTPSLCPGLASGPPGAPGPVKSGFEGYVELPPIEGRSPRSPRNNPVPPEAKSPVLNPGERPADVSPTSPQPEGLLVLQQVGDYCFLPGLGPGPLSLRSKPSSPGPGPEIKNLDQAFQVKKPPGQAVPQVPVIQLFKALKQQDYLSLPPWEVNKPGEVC

T2: IL-5RαECD, extracellular domain (ECD) of the human IL-5 receptor α chain, soluble (human, UniProt Q01344 21-342)
T2 construct: extracellular domain; Captured through mAb 179 (anti-HPAP tail) in the plate, SPA and bead assays; also called soluble IL-5Rα; IL-5 receptor alpha chain extracellular domain
T2 sequence (Q01344 whole entry, looked up): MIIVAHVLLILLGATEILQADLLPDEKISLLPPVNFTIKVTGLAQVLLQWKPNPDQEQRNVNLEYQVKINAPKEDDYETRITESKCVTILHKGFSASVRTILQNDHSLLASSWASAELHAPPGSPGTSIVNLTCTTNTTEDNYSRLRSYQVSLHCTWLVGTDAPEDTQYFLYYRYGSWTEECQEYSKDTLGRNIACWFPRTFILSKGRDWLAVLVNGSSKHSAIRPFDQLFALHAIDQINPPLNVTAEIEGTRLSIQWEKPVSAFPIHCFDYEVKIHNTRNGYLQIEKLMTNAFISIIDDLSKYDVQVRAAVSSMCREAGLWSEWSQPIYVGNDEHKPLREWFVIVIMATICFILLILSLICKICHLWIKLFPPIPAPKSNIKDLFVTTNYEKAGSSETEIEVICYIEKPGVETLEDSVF


Columns and labels:
[1] = molecular target: IL-5RαECD, extracellular domain (ECD) of the human IL-5 receptor α chain, soluble (human, UniProt Q01344 21-342); test: scintillation proximity competition assay, dimer against 20 pM [125I] IL-5 on IL-5Rα coated beads
Method: (§1) Binding affinities of synthetic peptides for IL-5Rα were measured in a scintillation proximity assay (SPA) using radio-iodinated IL-5. Streptavidin coated SPA beads (Amersham) were suspended in IL-5 binding buffer (phosphate buffered saline, 0.1% bovine serum albumin, 0.2% NaN_3) at 2 mg beads/ml of buffer. Biotinylated mAb 179 was adsorbed onto the beads at a ratio of 2 μg Ab/mg beads by incubating the beads and antibody with agitation for at least 2 h. at 4°. The beads were pelleted at 2500 rpm and resuspended at 2 mg/ml in binding buffer. Soluble IL-5Rα was then adsorbed onto the beads by diluting a solution of soluble receptor harvest 1:500 into the bead suspension and incubating with agitation for 2 hr at 4°. The beads were again pelleted at 2500 rpm and resuspended at 2 mg/ml in binding buffer. Competition binding assays were carried out in 100 μl reactions in white polystyrene microtiter plates. […] IL-5 (Amersham). The plates were incubated at room temperature for 1 hour with agitation, then centrifuged for 5 min at 1500 rpm followed by scintillation counting on a Topcount instrument (Packard). […] IL-5 bound in the absence of any competitor. […] IL-5 bound in the presence of 30 nM IL-5. […] IL-5 binding by 50% (IC$50$). In each instance, the dimer has both intramolecular and intermolecular disulfide linkages as shown generically below: […]

[2] = molecular target: T1, native IL-5R α/β complex on cells (TF-1 …); test: cell-based or functional assay
[3] = molecular target: T2, IL-5RαECD, extracellular domain (ECD) …; test: scintillation proximity competition assay, dimer against 20 pM [125I] IL-5 on IL-5Rα coated beads
Method: as §1

Binder	SPA pIC50 [1]	Microphysiometer pIC50 (block of the TF-1 cell response to IL-5) [2]	SPA pIC50 [3]
Ac-EGYVCVEWAACPTCR-NH2 (disulfide (positions not given here); also: dimer, intramolecular and intermolecular disulfides, places not given here) [dimer of (Ac)-EGYVCVEWAACPTCR-(NH2)]		6.9	
[Ahx]EGYVCVEWARCPTCR-NH2 (disulfide (positions not given here); also: dimer, intramolecular and intermolecular disulfide linkages, places not given here) [dimer of (Ahx)-EGYVCVEWARCPTCR-(NH2)]		9	
Ac-EGYVCVEWARCPTCR-NH2 (disulfide (positions not given here); also: dimer, intramolecular and intermolecular disulfide linkages, places not given here) [dimer of (Ac)-EGYVCVEWARCPTCR-(NH2)]		8.4	
H-EGYVCVEFARCPTCG-NH2 (disulfide (positions not given here); also: dimer, intramolecular and intermolecular disulfide linkages, places not given here) [dimer of (H)-EGYVCVEFARCPTCG-(NH2)]	6.6		
H-TGGGDGYVCVEWARCPTCK-OH (disulfide 15-18; also: homodimer via interchain Cys9-Cys9 disulfide) [AF18748, synthetic dimer of (H)-TGGGDGYVCVEWARCPTCK-(OH)]		9.6	9.1
Ac-EGYVCVEWARCPTCK-NH2 (disulfide (positions not given here); also: dimer, intramolecular and intermolecular disulfide linkages, places not given here) [dimer of (Ac)-EGYVCVEWARCPTCK-(NH2)]		8.5	

More lines, now with the values ahead:

SPA pIC50 [1]	Microphysiometer pIC50 (block of the TF-1 cell response to IL-5) [2]	SPA pIC50 [3]	Binder
6.1			H-GYVCVEFARCPTCG-NH2 (disulfide (positions not given here); also: dimer, intramolecular and intermolecular disulfide linkages, places not given here) [dimer of (H)-GYVCVEFARCPTCG-(NH2)]
8.7	9.2		H-EGYVCVEWARCPTCK-OH (disulfide (positions not given here); also: dimer, intramolecular and intermolecular disulfide linkages, places not given here) [dimer of (H)-EGYVCVEWARCPTCK-(OH)]
8.2	8.4		H-GYVCVEWARCPTCR-OH (disulfide (positions not given here); also: dimer, intramolecular and intermolecular disulfide linkages, places not given here) [dimer of (H)-GYVCVEWARCPTCR-(OH)]
	6.5		Ac-EGYV[Dap]VEWARCPTCR-NH2 (cysteine pairing not given here; also: homodimer, link between chains only in drawing) [dimer of two chains of residues 36-50 of SEQ ID NO: 9 (structure only in drawing CHEM-US-00014)]
	9.1		H-EGYVCVEWARCPTCR-NH2 (disulfide (positions not given here); also: dimer, intramolecular and intermolecular disulfide linkages, places not given here) [dimer of (H)-EGYVCVEWARCPTCR-(NH2)]
	9.1		H-EGYVCVEWARCPTCG-NH2 (disulfide (positions not given here); also: dimer, intramolecular and intermolecular disulfide linkages, places not given here) [dimer of (H)-EGYVCVEWARCPTCG-(NH2)]
	9.6	8.4	H-EGYVCVEWARCPTCR-OH (disulfide (positions not given here); also: dimer, intramolecular and intermolecular disulfide linkages, places not given here) [dimer of (H)-EGYVCVEWARCPTCR-(OH)]
		6.8	H-EGYVCVEFARCPTCR-OH (disulfide (positions not given here); also: dimer, intramolecular and intermolecular disulfide linkages, places not given here) [dimer of (H)-EGYVCVEFARCPTCR-(OH)]
